# Experimental data as given in patent publication US20230348616A1 (MIE UNIVERSITY, published 2023).
# Changes are numbered by the printed parent chain.
# B1: NYA-2060 (scFv)
# scFv: GEVQLVESGGGLVQPGGSLRLSCAASGFSIRSYDIHWVRQAPGKGLEWVATISYDGSQKYYADSVKGRFTISRDESKNTLYLQMNSLRAEDTAVYHCARGSSGHYEAFDIWGQGTLVTVSSGGGGSGGGGSGGGGSQSVLTQPPSVSAAPGQKVTISCSGSSSNIGNWYVSWYQQLPGTAPKLLIYDNNKRPSGIPDRFSGSKSGTSATLGITGLQTGDEADYYCGTWDSSLSAPWVFGGGTKVTVLGAAAGAGGDYKDDDDKGAAAHHHHHH
# notes: also called NYA-2060 tag adduct
# B2: NYA-2044 (scFv)
# scFv: B1 scFv with Q40L
# notes: also called NYA-2044 tag adduct
# B3: NYA-2035 (scFv)
# scFv: GEVQLVESGGGVVQPGRSLTPSCSASGFSIRSYDIHWVRLAPGKGLEWVATISYDGSQKYFADSVKGRFTIFRDESENMVYLQMSGLRVEDTAVYHCARGSSGHYEAFDIWGQGTMVTVSSGGGGSGGGGSGGGGSQSVLTQPPSVSAAPGQKVTISCSGSSSNIGNWKVSWYQQLPGTAPKLLIYDNNKRPSGIPDRFSGSKSGTSATLGITGLQTGDEADYYCGTWDSSLSAPWVFGGGTKVTVLGAAAGAGGDYKDDDDKGAAAHHHHHH
# B4: NYA-2143 (scFv)
# scFv: B3 scFv with K169Y, Q175R
# Biological target: T1, HLA-A2 / homologous peptide DOLPP1 complex on T2 cells (human)
# T1 construct: whole, on cells; also called T2 cells supplemented with homologous peptide DOLPP1
# Experiment: flow cytometry on peptide-pulsed T2 cells, scFv 100 nM
# Method: (§1) The cells were washed 2 times in PBS containing 5% FBS, immobilized with Mildform 10 N (FUJIFILM Wako Pure Chemical Corporation) overnight, and resuspended in PBS containing 5% FBS. The cell suspensions were subjected to detection using a flow cytometer (CantoII, Becton Dickinson). […] The standardized gMFI indicating the binding affinity of each scFv standardized with the amount of the HLA/peptide complex on the T2 cells was determined in accordance with the following equation.
# (§2) The 9-mer peptide shown in FIG. 2A was selected as a homologous peptide for evaluation of binding specificity of anti-HLA/NY-ESO scFv. […] The standardized gMFI indicating the binding affinity of each scFv standardized with the amount of the HLA/peptide complex on the T2 cells was determined in accordance with the following equation.
row,Binder,standardized gMFI
1,B1,0.42
2,B2,0.38
3,B3,0.38
4,B4,0.38

# Biological target: T2, gp100 (human)
# T2 construct: cell surface;cell surface complex; also called HLA-A2 / gp100 peptide complex on T2 cells
# Experiment: as above
# Method: as §1, §2
row,Binder,standardized gMFI
1,B1,0.32
2,B2,0.32
3,B3,0.29
4,B4,0.31

# Biological target: T3, HLA-A2 / homologous peptide P2RY8 complex on T2 cells (human)
# T3 construct: whole, on cells; also called T2 cells supplemented with homologous peptide P2RY8
# Experiment: as above
# Method: as §1, §2
row,Binder,standardized gMFI
1,B1,0.62
2,B2,0.72
3,B3,0.69
4,B4,0.69

# Biological target: T4, HLA-A2 / homologous peptide IL20RB complex on T2 cells (human)
# T4 construct: whole, on cells; also called T2 cells supplemented with homologous peptide IL20RB
# Experiment: as above
# Method: as §1, §2
row,Binder,standardized gMFI
1,B1,0.45
2,B2,0.43
3,B3,0.41
4,B4,0.42

# Biological target: T5, HLA-A2 / homologous peptide CD163 complex on T2 cells (human)
# T5 construct: whole, on cells; also called T2 cells supplemented with homologous peptide CD163
# Experiment: as above
# Method: as §1, §2
row,Binder,standardized gMFI
1,B1,0.47
2,B2,0.47
3,B3,0.48
4,B4,0.46

# Biological target: T6, HLA-A2/NY-ESO peptide complex presented on cells (human)
# T6 construct: whole, on cells; also called HLA/NY-ESO; T2 cells supplemented with the NY-ESO peptide
# Experiment: as above
# Method: as §1, §2
row,Binder,standardized gMFI
1,B1,11.2
2,B2,14.3
3,B3,11.1
4,B4,13.5

# Biological target: T7, HLA-A2 / homologous peptide PRKD2 complex on T2 cells (human)
# T7 construct: whole, on cells; also called T2 cells supplemented with homologous peptide PRKD2
# Experiment: as above
# Method: as §1, §2
row,Binder,standardized gMFI
1,B1,0.33
2,B2,0.33
3,B3,0.33
4,B4,0.32

# Biological target: T8, HLA-A*0201/β2-microglobulin/NY-ESO peptide complex (human, biotinylated with E. coli biotin ligase at the added recognition sequence (biotinylated form used in the ELISA))
# T8 construct: also called HLA/NY-ESO; HLA-A2/NY-ESO
# Experiment: SPR (Biacore T200), scFv captured by anti-His antibody, HLA/NY-ESO as analyte, single cycle kinetics
# Method: With the use of Biacore T200, anti-HLA/NY-ESO scFv was captured as a ligand by the immobilized anti-His antibody, and the antigen was assayed as an analyte. As the antigen, HLA/NY-ESO prepared in 1)-1 was used. The anti-His antibody (His Capture kit, GE Healthcare) was immobilized on Sensor Chip CM5 (GE Healthcare) in accordance with the instructions of the kit. The anti-HLA/NY-ESO scFv constructs diluted to 0.5 μg/ml in HBS-EP+ (GE Healthcare) to be evaluated were brought into contact therewith at 10 μl/min for 60 seconds for immobilization. Thereafter, the samples were added to the HLA/NY-ESO analytes diluted to various levels with HBS-EP+ at a flow rate of 30 μl/min for 120 seconds and dissociation was assayed for 600 seconds.
row,Binder,Kd [nM]
1,B1,1.1
2,B2,0.8
3,B3,3.2
4,B4,0.9

# Biological target: T1, HLA-A2 / homologous peptide DOLPP1 …
# Experiment: flow cytometry, peptide-pulsed T2 cells
row,Binder,binding result
1,B1,no binding (tested: 100 nM)
2,B2,no binding (tested: 100 nM)
3,B3,no binding (tested: 100 nM)
4,B4,no binding (tested: 100 nM)

# Biological target: T3, HLA-A2 / homologous peptide P2RY8 …
# Experiment: flow cytometry, peptide-pulsed T2 cells
row,Binder,binding result
1,B1,no binding (tested: 100 nM)
2,B2,no binding (tested: 100 nM)
3,B3,no binding (tested: 100 nM)
4,B4,no binding (tested: 100 nM)

# Biological target: T4, HLA-A2 / homologous peptide IL20RB …
# Experiment: flow cytometry, peptide-pulsed T2 cells
row,Binder,binding result
1,B1,no binding (tested: 100 nM)
2,B2,no binding (tested: 100 nM)
3,B3,no binding (tested: 100 nM)
4,B4,no binding (tested: 100 nM)

# Biological target: T5, HLA-A2 / homologous peptide CD163 …
# Experiment: flow cytometry, peptide-pulsed T2 cells
row,Binder,binding result
1,B1,no binding (tested: 100 nM)
2,B2,no binding (tested: 100 nM)
3,B3,no binding (tested: 100 nM)
4,B4,no binding (tested: 100 nM)

# Biological target: T7, HLA-A2 / homologous peptide PRKD2 …
# Experiment: flow cytometry, peptide-pulsed T2 cells
row,Binder,binding result
1,B1,no binding (tested: 100 nM)
2,B2,no binding (tested: 100 nM)
3,B3,no binding (tested: 100 nM)
4,B4,no binding (tested: 100 nM)

# Biological target: T2, gp100
# Experiment: flow cytometry on peptide-pulsed T2 cells, scFv 100 nM
# Remark: another data set of the same source
# Method: (§3) The resultant was washed two times in the AIM-V medium containing 20% FBS, the concentration thereof was adjusted to an adequate level with PBS containing 5% FBS, the LIVE/DEAD Fixable Dead Cell Stain Kit (Thermo Fisher Scientific) was added thereto, and the resultant was allowed to stand at 4° C. for 30 minutes. The cells were washed 2 times in PBS containing 5% FBS, the washed cells were divided into two groups, the cells in PBS containing 5% FBS were seeded on a 96-well U-bottom microplate at 10⁵ cells/well, and the plate was subjected to centrifugation, followed by removal of the supernatant. Anti-HLA/NY-ESO scFv diluted to 100 nM with PBS containing 5% FBS was added at 25 μl/well to one of the divided cells, and the resultant was allowed to stand at 4° C. for 30 minutes. The cells were washed 2 times in PBS containing 5% FBS, Penta-His Alexa Fluor488 (QIAGEN) diluted in PBS containing 5% FBS was added at 25 μl/well, and the resultant was allowed to stand at 4° C. for 30 minutes. The cells were washed 2 times in PBS containing 5% FBS, Anti-mouse-IgG Alexa Fluor488 (Thermo Fisher Scientific) diluted in PBS containing 5% FBS was added at 25 μl/well, and the resultant was allowed to stand at 4° C. for 30 minutes. The cells were washed 2 times in PBS containing 5% FBS, immobilized with Mildform 10 N (FUJIFILM Wako Pure Chemical Corporation) overnight, and resuspended in PBS containing 5% FBS. […] The cells were washed 2 times in PBS containing 5% FBS, immobilized with Mildform 10 N (FUJIFILM Wako Pure Chemical Corporation) overnight, and resuspended in PBS containing 5% FBS. The cell suspensions were subjected to detection using a flow cytometer (CantoII, Becton Dickinson). […] The standardized gMFI indicating the binding affinity of each scFv standardized with the amount of the HLA/peptide complex on the T2 cells was determined in accordance with the following equation.
row,Binder,standardized gMFI
1,B1,0.41
2,B2,0.39
3,B3,0.38
4,B4,0.38

# Biological target: T6, HLA-A2/NY-ESO peptide complex presented …
# Experiment: as above
# Remark: another data set of the same source
# Method: as §3
row,Binder,standardized gMFI
1,B1,8.78
2,B2,12.9
3,B3,9.94
4,B4,13.1
